Measurements published in patent US20140096284A1, “METHOD FOR THE DELIVERY OF MOLECULES LYOPHILIZED ONTO MICROPARTICLES TO PLANT TISSUES” (priority 2012, published 2014).

B1: β-glucuronidase: enzyme (Sigma) detected by X-gluc histochemical staining (protein, UniProt P05804 1-603, looked up)
Beta-glucuronidase: MLRPVETPTREIKKLDGLWAFSLDRENCGIDQRWWESALQESRAIAVPGSFNDQFADADIRNYAGNVWYQREVFIPKGWAGQRIVLRFDAVTHYGKVWVNNQEVMEHQGGYTPFEADVTPYVIAGKSVRITVCVNNELNWQTIPPGMVITDENGKKKQSYFHDFFNYAGIHRSVMLYTTPNTWVDDITVVTHVAQDCNHASVDWQVVANGDVSVELRDADQQVVATGQGTSGTLQVVNPHLWQPGEGYLYELCVTAKSQTECDIYPLRVGIRSVAVKGEQFLINHKPFYFTGFGRHEDADLRGKGFDNVLMVHDHALMDWIGANSYRTSHYPYAEEMLDWADEHGIVVIDETAAVGFNLSLGIGFEAGNKPKELYSEEAVNGETQQAHLQAIKELIARDKNHPSVVMWSIANEPDTRPQGAREYFAPLAEATRKLDPTRPITCVNVMFCDAHTDTISDLFDVLCLNRYYGWYVQSGDLETAEKVLEKELLAWQEKLHQPIIITEYGVDTLAGLHSMYTDMWSEEYQCAWLDMYHRVFDRVSAVVGEQVWNFADFATSQGILRVGGNKKGIFTRDRKPKSAAFLLQKRWTGMNFGEKPQQGGKQ
B2: RNAse: enzyme (Sigma) expected to digest intracellular RNA content (protein, UniProt P61823 27-150, looked up)
Ribonuclease pancreatic: KETAAAKFERQHMDSSTSAASSSNYCNQMMKSRNLTKDRCKPVNTFVHESLADVQAVCSQKNVACKNGQTNCYQSYSTMSITDCRETGSSKYPNCAYKTTQANKHIIVACEGNPYVPVHFDASV
B3: trypsin: enzyme (Sigma) expected to digest intracellular protein (protein, UniProt P00760 24-246, looked up)
Serine protease 1: IVGGYTCGANTVPYQVSLNSGYHFCGGSLINSQWVVSAAHCYKSGIQVRLGEDNINVVEGNEQFISASKSIVHPSYNSNTLNNDIMLIKLKSAASLNSRVASISLPTSCASAGTQCLISGWGNTKSSGTSYPDVLKCLKAPILSDSSCKSAYPGQITSNMFCAGYLEGGKDSCQGDSGGPVVCSGKLQGIVSWGSGCAQKNKPGVYTKVCNYVSWIKQTIASN

Columns and labels:
onion epidermis tissue [1] = assay: Biolistic delivery of air-dried or freeze-dried protein or DNA, with or without 0.6 μm gold, to onion epidermis; format: cell-based
Description: Previously, protein and 0.6 μm gold projectiles were mixed and poured on top of a macrocarrier of the gene gun, frozen in liquid nitrogen, and lyophilized or freeze-dried. The same experiment was repeated by pouring the protein/0.6 μm gold mixture over a macrocarrier and leaving it to dry on top of a bench for 1 hour or overnight, termed “air-dried” (FIG. 10A). The experiment was done with two different proteins, β-glucuronidase and DS-RED2. Onion epidermis tissues were bombarded using these macrocarriers. An experiment was conducted using β-glucuronidase and DS-RED2, air-dried directly onto the macrocarriers without 0.6 μm gold projectiles (FIG. 10B). […] An experiment was conducted to compare DNA coating based on CaCl2/spermidine precipitation, freeze-drying or air-drying, and 0.6 μm gold particles. […] A DNA containing solution was freeze-dried or air-dried (without 0.6 μm gold projectiles) directly onto macrocarriers. Onion epidermis tissues were bombarded and 1 to 20 fluorescent cells could be observed (FIG. 15 and FIG. 16). Even though the number of cells that were transfected is much lower than when using 0.6 μm gold, protein can be delivered without the use of projectiles.

onion epidermis tissue [2] = assay: Biolistic delivery of molecules lyophilized onto 0.6 μm gold microcarriers to onion epidermis tissue; format: cell-based; conditions: 275 μg per shot lyophilized onto 0.6 μm gold, one day after bombardment
Description: 2 μL of 0.6 μm gold particle stock was mixed with 1 μg of GFP plasmid pLMNC95 or 2 μL of a 400 ng/μL, TRITC-BSA solution. The mixture was poured on a macrocarrier, frozen in liquid nitrogen and freeze-dry for 1 hour prior to onion epidermis tissue bombardment.
Onion epidermis tissue was obtained from the scale leaves of white onion bulbs. Rectangular (3×2.5 cm) pieces were peeled right before the bombardment and placed in solid agar media (0.5 mM of 2-(N-morpholino)ethanesulfonic acid (MES), 15 g L^−1 Bacto agar (BD), pH 5.7) with the peeled side upwards. For quantitative measurements, epidermis pieces of the same scale leaf were distributed among treatments. Tobacco leaves (Nicotiana tabacum var. Petite Havana) were obtained from 3-6 week old in vitro grown plants on MS media (MS medium (Murashige and Skoog, 1962), 2% sucrose, 2.5 g L^−1 gelrite, pH 5.7). Leaves were cut right before bombardment and put with the adaxial surface up on agar media. Hill maize immature embryos were obtained from immature ears provided by the Center for Plant Transformation—Iowa State University. […]
Bright field and fluorescence images were taken using a Zeiss Axio star plus microscope. […] For the green channel fluorescence images a GFP BP filter (Chroma Technology Corp.) was used (λex=470 nm, beam splitter=495 nm and λem=525 nm). […]

onion epidermis tissues = assay: Delivery of β-glucuronidase or plasmid DNA air dried onto tungsten particles to onion epidermis; format: cell-based; conditions: 200 μg per shot air-dried onto M5 or M17 tungsten; 1100 psi/6 cm
Description: M5 (0.4 μm in size) and M17 (1.1 μm in size) tungsten particles from Bio-Rad were used. 100 μg of each type of particle and 200 μg of β-glucuronidase enzyme or 1 μg of GFP expressing plasmid pLMNC95 were used per shot. The suspensions were air dried for 2 hours onto the macrocarrier-set. Onion epidermis tissues were bombarded at 1100 psi/6 cm. Samples bombarded with β-glucuronidase were incubated overnight at 37° C. in X-gluc solution as previously described.

[3] = tested on: onion epidermis cell tissues; assay: Bombardment of onion epidermis with liquid protein solutions; format: cell-based; conditions: liquid protein solution on macrocarrier; tissue damage was caused
From the text: As a control, β-glucuronidase and DS-RED2 protein solutions were poured over the macrocarrier and onion epidermis cell tissues were bombarded. […] However, the use of lesser volumes, less harsh gene-gun conditions or other liquid propelling methodologies may allow for protein delivery with less tissue damage.

[4] = tested on: mouse ear pinna tissue cells; assay: Delivery of active β-glucuronidase to mouse ear pinna tissue cells; format: cell-based, CD-1 mice; conditions: 200 μg per shot air-dried with 90 μg 0.6 μm gold; 650 and 1100 psi; sixteen hours
Description: A mixture of 90 μg of 0.6 μm gold and 200 μg of β-glucuronidase per shot were air-dried onto the macrocarrier set for 2 hours. Ear pinnas of 8 week old CD-1 mice were dissected right after animals were euthanized. The tissues were disposed with the inner part of the ear upwards on an agar medium plate (FIG. 17A) and were immediately bombarded using the PDS-1000/He gene-gun at 650 psi or 1100 psi, 6 cm target distance and 28 mmHg vacuum. Samples were then soaked in X-gluc solution and incubated at 37° C. overnight. Sixteen hours later samples were examined under the microscope. […] Multiple gold particles (detected as dark dots) could be detected in different depths of the same cell (FIG. 17C). The localization of these blue cells in the bombarded tissue is the result of active β-glucuronidase protein delivery.

onion epidermis tissue [5] = assay: Fluorescein diacetate staining, count of dead cells after bombardment; format: cell-based; conditions: 200 μg trypsin or 40 μg RNAse per shot lyophilized onto 0.6 μm gold
Description: Onion epidermis tissues were submerged in 10 mL of MS liquid media to which 100 μL of a 5 mg mL^−1 of fluorescein diacetate (Alfa Aesar) solution in acetone were added. The samples were incubated for 2-5 minutes and directly observed under the green channel filter of the fluorescence microscope. For quantitative measurements, 12 images (10.5×8 mm) were taken with the 5× microscope objective scattered every 0.5 cm (4 columns×3 rows). The total amount of dead cells found on each image was counted.
The high concentration of protein used per shot (250 μg per shot) and the lyophilization process could cause cell death by: (1) physical damage of the potential clumps produced after lyophilizing protein and microparticles and (2) excess of intracellular protein delivery reaching toxic levels. To assess cellular death, onion epidermis tissues were stained with fluorescein diacetate, which stains in fluorescent green the living cells, while the dead ones remain dark (FIG. 7A). […]
As another example of active enzyme delivery, trypsin and RNAse A were chosen. […] The number of dead cells was measured using fluorescein diacetate staining in samples not bombarded, bombarded only with 0.6 μm gold or with 200 μg of trypsin or 40 μg of RNAse per shot. […]

Row | Molecule | protein delivery after bombardment (onion epidermis tissue [1]; air-dried directly onto macrocarriers without 0.6 μm gold) | degradation when subjected to air drying (onion epidermis tissue [1]; air-dried on macrocarrier) | protein delivery after bombardment (onion epidermis tissue [1]; air-dried with 0.6 μm gold on macrocarrier for 1 hour or overnight) | active enzyme delivery (blue cells after X-gluc staining) (onion epidermis tissue [2]) | active enzyme delivery (blue cells after X-gluc incubation) (onion epidermis tissues) | protein delivery after bombardment [3] | active enzyme delivery (blue cells after X-gluc incubation) [4] | dead cells compared with controls without the enzymes (indirect measurement of enzyme activity) (onion epidermis tissue [5])
1 | B1 | protein delivery also could be detected | not substantially degraded | protein delivery was achieved | several blue cells could be observed | several cells were showing blue coloration | no protein delivery was observed | several blue cells were localized in the tissues | –
2 | B2 | – | – | – | – | – | – | – | large amounts of dead cells
3 | B3 | – | – | – | – | – | – | – | large amounts of dead cells
